Values joined by “and” are separate entries in the source; they are usually repeats but may differ in a detail not shown here. Equal entries are not always repeated.
T1: Mesyl-dFPR-ACC
T1 sequence (peptide, N-terminal mesyl; D-Phe at position 1 (dF); C-terminal ACC fluorophore): FPR


Key:
Mesyl-dFPR-ACC = target: T1, Mesyl-dFPR-ACC
[1] = target: Factor X (Homo sapiens (Human)) (UniProt P00742)
[2] = target: Factor X (FX) (Homo sapiens (Human)) (UniProt P00742)
Sequence of Factor X (FX) (Homo sapiens (Human)) (P00742 41-488 limits assumed): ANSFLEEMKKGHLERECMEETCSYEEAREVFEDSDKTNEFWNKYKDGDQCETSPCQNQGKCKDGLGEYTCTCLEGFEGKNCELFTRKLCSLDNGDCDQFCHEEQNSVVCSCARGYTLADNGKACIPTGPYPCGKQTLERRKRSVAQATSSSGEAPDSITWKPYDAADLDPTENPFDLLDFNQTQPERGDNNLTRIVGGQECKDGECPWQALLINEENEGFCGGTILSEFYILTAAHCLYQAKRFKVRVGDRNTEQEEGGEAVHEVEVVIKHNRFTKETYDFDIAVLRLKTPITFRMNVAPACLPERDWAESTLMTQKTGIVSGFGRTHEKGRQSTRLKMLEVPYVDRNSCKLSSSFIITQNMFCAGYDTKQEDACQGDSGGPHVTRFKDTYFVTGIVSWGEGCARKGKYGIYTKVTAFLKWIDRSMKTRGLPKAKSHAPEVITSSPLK

Row | Molecule | Activity (µmol/sec/µmol), specific activity for mesyl-dFPR-ACC (µmol/sec/µmol) (Mesyl-dFPR-ACC) | kcat/KM (M^-1s^-1), TF-dependent assay [1] | kcat/KM, TF-independent assay [1] | kcat/KM, TF-dependent assay [1] [M⁻¹ s⁻¹] | kcat/KM, TF-Dependent Indirect Assay [2] [M⁻¹ s⁻¹]
1 | S52A/S60A/Q286R/M298Q/H373F-FVIIa (enzyme) | 5.02 | 1.77e+08 M⁻¹ s⁻¹ | 63.3 M⁻¹ s⁻¹ |  | 
2 | T128N/P129A/A175S/Q286R/M298Q/H373F-FVIIa (enzyme) | 2.78 |  |  | 5.72e+07 | 
3 | A122N/G124S/A175S/Q366V-FVIIa (enzyme) | 2.34 | 3.02e+07 M⁻¹ s⁻¹ | 3 M⁻¹ s⁻¹ |  | 
4 | Gla swap FIX/Q286R/S222A/H257S-FVIIa (enzyme) | 0.49 | 8.53e+07 M⁻¹ s⁻¹ |  |  | 
5 | Gla swapFIX/Q366V-FVIIa (enzyme) | 2.82 | 9.11e+07 M⁻¹ s⁻¹ | 90 M⁻¹ s⁻¹ |  | 
6 | {Gla swap FIX/E40L}/Q286R/M298Q-FVIIa (enzyme) | 1.16 | 2.08e+08 M⁻¹ s⁻¹ | 814 M⁻¹ s⁻¹ |  | 
7 | WT (NovoSeven®) FVIIa (enzyme) | 2.31 |  |  |  | 
8 | S52A/S60A/S222A/H257A/Q286R/M298Q-FVIIa (enzyme) | 0.98 | 2.49e+08 M⁻¹ s⁻¹ | 116 M⁻¹ s⁻¹ |  | 
9 | Gla swap FIX/S222A/T239V/Q286R-FVIIa (enzyme) | 0.66 | 2.03e+08 M⁻¹ s⁻¹ and 9.94e+07 M⁻¹ s⁻¹ |  |  | 
10 | {Gla swap FIX/M19K}/Q286R/M298Q-FVIIa (enzyme) | 1.26 | 1.41e+08 M⁻¹ s⁻¹ | 512 M⁻¹ s⁻¹ |  | 
11 | Gla swap FIX/S222A/Q286R/M298Q/H373F-FVIIa (enzyme) | 1.92 | 2.84e+08 M⁻¹ s⁻¹ | 192 M⁻¹ s⁻¹ |  | 
12 | A122N/G124S/A175S/Q286R-FVIIa (enzyme) | 2.16 | 4.11e+07 M⁻¹ s⁻¹ | 3 M⁻¹ s⁻¹ |  | 
13 | FVIIa variant T239N (enzyme) ANAFLEELRPGSLERECKEEQCSFEEAREIFKDAERTKLFWISYSDGDQCASSPCQNGGSCKDQLQSYICFCLPAFEGRNCETHKDDQLICVNENGGCEQYCSDHTGTKRSCRCHEGYSLLADGVSCTPTVEYPCGKIPILEKRNASKPQGRIVGGKVCPKGECPWQVLLLVNGAQLCGGTLINTIWVVSAAHCFDKIKNWRNLIAVLGEHDLSEHDGDEQSRRVAQVIIPSTYVPGTNNHDIALLRLHQPVVLTDHVVPLCLPERTFSERTLAFVRFSLVSGWGQLLDRGATALELMVLNVPRLMTQDCLQQSRKVGDSPNITEYMFCAGYSDGSKDSCKGDSGGPHATHYRGTWYLTGIVSWGQGCATVGHFGVYTRVSQYIEWLQKLMRSEPRPGVLLRAPFP |  |  |  |  | 1.64e+07
14 | FVIIa variant S222A/M298Q (enzyme) ANAFLEELRPGSLERECKEEQCSFEEAREIFKDAERTKLFWISYSDGDQCASSPCQNGGSCKDQLQSYICFCLPAFEGRNCETHKDDQLICVNENGGCEQYCSDHTGTKRSCRCHEGYSLLADGVSCTPTVEYPCGKIPILEKRNASKPQGRIVGGKVCPKGECPWQVLLLVNGAQLCGGTLINTIWVVSAAHCFDKIKNWRNLIAVLGEHDLSEHDGDEQARRVAQVIIPSTYVPGTTNHDIALLRLHQPVVLTDHVVPLCLPERTFSERTLAFVRFSLVSGWGQLLDRGATALELQVLNVPRLMTQDCLQQSRKVGDSPNITEYMFCAGYSDGSKDSCKGDSGGPHATHYRGTWYLTGIVSWGQGCATVGHFGVYTRVSQYIEWLQKLMRSEPRPGVLLRAPFP |  |  |  |  | 7.13e+07

Now from value to molecule:

Row | Activity (µmol/sec/µmol), specific activity for mesyl-dFPR-ACC (µmol/sec/µmol) (Mesyl-dFPR-ACC) | kcat/KM (M^-1s^-1), TF-dependent assay [1] | kcat/KM, TF-independent assay [1] | kcat/KM, TF-dependent assay [1] [M⁻¹ s⁻¹] | kcat/KM, TF-Dependent Indirect Assay [2] [M⁻¹ s⁻¹] | Molecule
15 | 1.37 | 1.22e+08 M⁻¹ s⁻¹ | 81.2 M⁻¹ s⁻¹ |  |  | Gla swap FIX/S222A/Q286R/H373F-FVIIa (enzyme)
16 | 1.88 | 3.33e+07 M⁻¹ s⁻¹ | 3.3 M⁻¹ s⁻¹ |  |  | T128N/P129A/A175S/Q286R-FVIIa (enzyme)
17 | 0.67 | 1.25e+08 M⁻¹ s⁻¹ | 244 M⁻¹ s⁻¹ |  |  | Gla swap FIX/T239I/Q286R/M298Q-FVIIa (enzyme)
18 | 0.44 | 4.1e+07 M⁻¹ s⁻¹ |  |  |  | S52A/S60A/Q286R-FVIIa (enzyme)
19 | 2.4 |  |  |  |  | WT FVIIa (enzyme)
20 | 2.56 | 2e+08 M⁻¹ s⁻¹ | 1760 M⁻¹ s⁻¹ |  |  | S52A/S60A/V158D/E296V/M298Q-FVIIa (enzyme)
21 | 0.25 | 6.77e+07 M⁻¹ s⁻¹ |  |  |  | GlaSwapFIX/S222A/T239I/Q286R-FVIIa (enzyme)
22 | 1.22 | 3.91e+07 M⁻¹ s⁻¹ | 10.2 M⁻¹ s⁻¹ and 19.6 M⁻¹ s⁻¹ |  |  | S52A/S60A/S222A-FVIIa (enzyme)
23 | 3.19 | 1.72e+07 M⁻¹ s⁻¹ | 1.9 M⁻¹ s⁻¹ |  |  | T128N/P129A/A175S/S222A-FVIIa (enzyme)
24 | 1.21 | 8.45e+07 M⁻¹ s⁻¹ and 6.2e+07 M⁻¹ s⁻¹ | 8.7 M⁻¹ s⁻¹ and 10.5 M⁻¹ s⁻¹ |  |  | T128N/P129A/Q286R-FVIIa (enzyme)
25 | 0.53 | 1.47e+08 M⁻¹ s⁻¹ and 1.43e+08 M⁻¹ s⁻¹ | 15.5 M⁻¹ s⁻¹ and 21.3 M⁻¹ s⁻¹ |  |  | Gla swap FIX/T128N/P129A/S222A/Q286R-FVIIa (enzyme)
26 | 0.78 | 2.11e+08 M⁻¹ s⁻¹ and 1.99e+08 M⁻¹ s⁻¹ |  |  |  | Gla swap FIX/T128N/P129A/Q286R/M298Q-FVIIa (enzyme)
27 | 3.26 | 2.01e+08 M⁻¹ s⁻¹ | 1380 M⁻¹ s⁻¹ |  |  | T128N/P129A/V158D/E296V/M298Q-FVIIa (enzyme)
28 |  |  |  |  | 7.92e+07 | FVIIa variant Q286R/Q366V (enzyme) ANAFLEELRPGSLERECKEEQCSFEEAREIFKDAERTKLFWISYSDGDQCASSPCQNGGSCKDQLQSYICFCLPAFEGRNCETHKDDQLICVNENGGCEQYCSDHTGTKRSCRCHEGYSLLADGVSCTPTVEYPCGKIPILEKRNASKPQGRIVGGKVCPKGECPWQVLLLVNGAQLCGGTLINTIWVVSAAHCFDKIKNWRNLIAVLGEHDLSEHDGDEQSRRVAQVIIPSTYVPGTTNHDIALLRLHQPVVLTDHVVPLCLPERTFSERTLAFVRFSLVSGWGRLLDRGATALELMVLNVPRLMTQDCLQQSRKVGDSPNITEYMFCAGYSDGSKDSCKGDSGGPHATHYRGTWYLTGIVSWGVGCATVGHFGVYTRVSQYIEWLQKLMRSEPRPGVLLRAPFP
29 |  |  |  |  | 1.28e+08 | FVIIa variant H257A/M298Q (enzyme) ANAFLEELRPGSLERECKEEQCSFEEAREIFKDAERTKLFWISYSDGDQCASSPCQNGGSCKDQLQSYICFCLPAFEGRNCETHKDDQLICVNENGGCEQYCSDHTGTKRSCRCHEGYSLLADGVSCTPTVEYPCGKIPILEKRNASKPQGRIVGGKVCPKGECPWQVLLLVNGAQLCGGTLINTIWVVSAAHCFDKIKNWRNLIAVLGEHDLSEHDGDEQSRRVAQVIIPSTYVPGTTNHDIALLRLHQPVVLTDAVVPLCLPERTFSERTLAFVRFSLVSGWGQLLDRGATALELQVLNVPRLMTQDCLQQSRKVGDSPNITEYMFCAGYSDGSKDSCKGDSGGPHATHYRGTWYLTGIVSWGQGCATVGHFGVYTRVSQYIEWLQKLMRSEPRPGVLLRAPFP
